Test results: patent US8372810B2, “Anti-tumor drug, medicament, composition, and use thereof” (Gene Signal International SA, priority 2007, dated 2013)

How the values were obtained:
HUVEC [1] = assay: Wound assay, migration of human endothelial cells; type: cell-based; settings: 18 hours; 497C-T2 0.83 and 1.66 μM; 497C-T3 2.4 μM; 497C-T4 3.52 μM; 497C-T5 3.65 μM; C-terminal tail 4.92 μM
Description: Cell migration was tested by the wound assay described by Sato and Rifkin (J Cell Biol. 1988; 107:1199) with few modifications. HUVEC grown in growth medium EGM-2MV (Cambrex) were seeded in 24-well plates at 80 000 cells per well in 500 μL of growth medium and grown to confluence at 37° C. in a humidified atmosphere containing 5% CO2. Cells were scrapped with a plastic tip on one line only. After wounding, the culture medium was changed for fresh medium (control, FIG. 3a) or fresh medium supplemented with: • FIG. 3b: 497C-T2 20 μg/mL (0.83 μM) • FIG. 3c: 497C-T2 40 μg/mL (1.66 μM) • FIG. 3d: 497C-T3 48 μg/mL (2.4 μM) • FIG. 3e: 497C-T4 60 μg/mL (3.52 μM) • FIG. 3f: 497C-T5 61 μg/mL (3.65 μM) • FIG. 3g: C-terminal tail 63 μg/mL (4.92 μM)
After 18 hours of culture, cells were observed and photographed under the inverted microscope (Analysis, Olympus, Rungis, France).

HUVEC [2] = assay: In vitro angiogenesis of HUVEC induced by FGF2 and VEGF on Matrigel; type: cell-based, human
Description: The purified proteins 497C-T2, 497C-T3, 497C-T4 and 497C-T5 were tested in vitro on angiogenesis of HUVEC induced by FGF2 and VEGF on Matrigel.
24 wells plates were prepared with 250 μL of BD Matrigel™/well and then incubated 30 minutes in incubator.

NCI H460 human tumor = NCI H460 human tumor xenograft in Swiss Nude mice, tumor growth; type: in vivo; set-up: key to MRTV D28 / MRTV D12 / MRTV D14 / MRTV D16 / MRTV D18 / MRTV D20 / MRTV D22 / MRTV D24 / MRTV D26: ratio of mean tumor volume at day t to volume at injection (D12); settings: for MRTV D12: reference day
Description: NCI H460 cells were cultured as adherent cells in complete RPMI 1640 medium (Ref. CM1RRM08-01, batch No. 623615, Eurobio, France) containing 2 mM L-Glutamine, adjusted to 4.5 g/L glucose (Ref. G7528, batch No. 033K0121, Sigma, France) and supplemented with 10 mM HEPES (Ref. H0887, batch No. 113K2338, Sigma, France), 1.0 mM sodium pyruvate (Ref. CSTVAT00-0U, batch No. 520818, Sigma, France) and 10% fetal calf serum (FCS; Ref. CVFSVF00-01, batch No. S13021, Eurobio, France) under a 37° C., 5% CO2 humidified atmosphere. They were amplified in 75 cm^2-flasks to reach 90×10^6 cells.
At D0, NCI H460 cells (human lung carcinoma) were collected from 75 cm^2-flasks by removing the medium and adding 3 ml of trypsine-EDTA (Ref. CEZTDA00-0U, batch No. 633920, Eurobio, France). After 5 min of incubation at 37° C., cells were detached from the plastic and the enzymatic reaction was stopped by adding 3 ml of RPMI 1640 medium containing 10% fetal calf serum. Cells were then centrifuged at 700 g for 5 min at room temperature. They were resuspended in serum-free RPMI 1640 culture medium containing L-Glutamine (2 mM), glucose (4.5 g/l), sodium pyruvate (1 mM) and buffered with HEPES (10 mM). Cells were counted and the number of viable NCI H460 cells was >99%. The number of cells was then adjusted to 25.10^6 cells/ml in serum-free medium.
NCI H460 cells (5.10^6 cells/mouse in 200 μL of serum-free medium) were then implanted subcutaneously in the right flank of each mouse.
At D12 post-implantation of the NCI H460 cells, the thirty mice were randomized into six groups of 5 mice. Tumor volumes had reached 228 to 468 mm^3 and mean tumor volumes were not statistically different between groups after randomization.
All solutions were injected IP.
Animals have been observed daily.
• Tumor growth curves were drawn using the mean tumor volumes (MTV), • Mean Relative tumor volume (MRTV) was calculated as the ratio between the MTV at time t and the volume at the time of injection (t=D12), • Tumor growth inhibition (T/C, %) was evaluated as the ratio of the median tumor volumes of treated groups versus vehicle group.
Statistical analyses of tumor volumes (V), time to reach ‘V’, tumor-doubling time (DT), relative tumor volume (RTV) and tumor growth inhibition (T/C) were performed for all groups. Data are expressed as mean±SD. Groups of data were normally distributed. Univariate analysis were performed to assess differences between groups. Statistical significance was then determined using the Student's t test. A P<0.05 was considered as statistically significant. The Statistical analysis was performed using XLSTAT (Addinsoft, France).

[3] = 497C-T2 10 mg/kg IP Q1DX16 (G4)
[4] = 497C-T2 10 mg/kg IP Q1DX16 (G4), 10 mg/kg
[5] = 497C-T2 10 mg/kg IP Q1DX16 (G4), listed as 497C-T2-Batch A
[6] = 497C-T2 10 mg/kg IP once daily Q1DX16 (G4)
[7] = IP Q2DX8, CDDP 5 mg/kg (G2), 497C-T2 10 mg/kg (G3), 497C-T2 10 mg/kg + CDDP 5 mg/kg (G5)
[8] = IP Q2DX8, CDDP 5 mg/kg (G2), 497C-T2 10 mg/kg (G3), 497C-T2 10 mg/kg + CDDP 5 mg/kg (G5), listed as 497C-T2-Batch A

B1: 497C-T2: entire LEL domain of protein 497C, SEQ ID NO:3 (112 amino acids); as produced SEQ ID NO:8, with N-terminal His-Tag and C-terminal tail, 24 kD (protein, listed as Homo sapiens)
chain: MHHHHHHSSGLVPRGSGMKETAAAKFERQHMDSPDLGTDDDDKISGFVFRHEIKDTFLRTYTDAMQTYNGNDERSRAVDHVQRSLSCCGVQNYTNWSTSPYFLEHGIPPSCCMNETDCNPQDLHNLTVAATKVNQKGCYDLVTSFMETNMGIIAGDRASPQPWRYRIRILAPSTSLRPHSSTTTTTTXIRLLTKPERKLSWLLPPLSNN
modifications: X: residue not identified in the source
HUVEC [1]
  inhibition of endothelial cell migration: inhibited human endothelial cells migration in a dose dependent manner
HUVEC [2]; 497C-T2 0.27-2 μM, 497C-T3 […], 497C-T4 3.18 μM, 497C-T5 3.35 μM, C-terminal tail 4.14 μM
  anti-angiogenic activity, capillary tube formation: inhibited in vitro angiogenesis in a dose-dependent manner
HUVEC [2]; at 270 nM
  inhibition of in vitro angiogenesis: small inhibition
HUVEC [2]; at 540 nM
  inhibition of in vitro angiogenesis: more than 50%
HUVEC [2]; comparison with literature (Binetruy-Tournaire 2000)
  potency relative to anti-VEGF mAb and/or VEGF receptor (KDR)-based peptides: at least 200 fold
HUVEC [2]; dose-response study, read-out: IC50, inhibition of in vitro angiogenesis
  IC50: < 540 nM
NCI H460 human tumor; [3]
  MTV at D14: 468.85 mm^3
  MTV at D24: 2289.22 mm^3
  T/C at D14 (treated/vehicle tumor volume ratio): 46.90%
  T/C at D24 (treated/vehicle tumor volume ratio): 71.04%
NCI H460 human tumor; [4]
  DT (doubling time of tumor volume): 5.9 ± 1.21 days
  MTV at D28: 3167±1681 mm^3
  T/C at D28 (treated/vehicle tumor volume ratio): 71%
NCI H460 human tumor; [5]
  DT (doubling time of tumor volume): 5.9 days
  MTV at D28: 3167.34 mm^3
  T/C at D28 (treated/vehicle tumor volume ratio): 71.32%
NCI H460 human tumor; [6]
  MRTV D14: 1.08
  MRTV D16: 1.00
  MRTV D18: 1.69
  MRTV D20: 2.63
  MRTV D22: 3.08
  MRTV D24: 3.08
  MRTV D26: 4.89
  MRTV D28: 6.76
  MRTV D12: 1.00
NCI H460 human tumor; [7]
  DT (doubling time of tumor volume): 4.08 ± 1.4 days
  MRTV D14: 1.37
  MRTV D16: 1.70
  MRTV D18: 2.46
  MRTV D20: 2.81
  MRTV D22: 3.30
  MRTV D24: 3.22
  MRTV D26: 5.80
  MRTV D28: 7.37
  MTV at D14: 571.00 mm^3
  MTV at D24: 1955.02 mm^3
  MTV at D28: 2482±2075 mm^3
  T/C at D14 (treated/vehicle tumor volume ratio): 57.12%
  T/C at D24 (treated/vehicle tumor volume ratio): 60.67%
  T/C at D28 (treated/vehicle tumor volume ratio): 56%
  MRTV D12: 1.00
NCI H460 human tumor; [8]
  DT (doubling time of tumor volume): 4.08 days
  MTV at D28: 2481.61 mm^3
  T/C at D28 (treated/vehicle tumor volume ratio): 55.88%
NCI H460 human tumor; NCI H460, monotherapy (G3, G4) or combined with CDDP (G5, G6)
  anti-tumoral activity: moderate anti-tumoral activity
